Patent US7740850B2, “PDGFRβ-specific antibodies” (ImClone, LLC, priority 2007, dated 2010)

Assays:
[1] = system: Akt and p44/42 MAP kinase in Caki-1 cells; assay: PDGF-BB-stimulated downstream signaling (Western blot); assay type: cell-based, human
Experimental: To study the downstream signaling, the cell lysate from the above treatment were resolved by a 4-12% NuPAGE Bis-Tris gel. Phosphorylated Akt and p44/42 mitogen-activated protein kinase (MAPK) were detected using an anti-phospho-Akt and an anti-phospho-p44/p42 MAPK and p44/p42 MAPK, respectively (eBioscience, San Diego, Calif.).
2C5 inhibits PDGF-BB-stimulated receptor phosphorylation and downstream signaling in a cell-based assay. The ability of 2C5 to block PDGFRβ phosphorylation was determined for human Caki-1 tumor cells (FIG. 7) and mouse NIH/3T3 and D122 cells lines (FIG. 8).

3β2α = assay: Epitope mapping, PDGFRβ/α chimera; assay type: binding; settings: ✓ / X, key not given
Experimental: (§1) 2C5 binds to domain 1 (D1) and domain 2 (D2) of PDGFRβ. Various chimeric constructs of PDGFRβ and PDGFRα were first made by domain swapping, starting from N-terminus to C-terminus with PDGFRβ domain(s) replacing PDGFRα domain(s). The PDGFRβ/α chimera were tested for the ability of 2C5 binding. Shorter versions of PDGFRβ, including D1D2, D2D3 and D1D2D3, were then made to confirm the 2C5 binding domains on PDGFRβ.

4β1α = assay: Epitope mapping, PDGFRβ/α chimera; assay type: binding; settings: ✓ / X, key not given
Experimental: as §1

U-118 cells = assay: PDGF-BB-stimulated cell migration, two-chamber technique; assay type: cell-based; settings: antibody 30 μg/ml, PDGF-BB 100 ng/ml, 4 hours
Experimental: (§2) 2C5 inhibits PDGF-BB-stimulated cell migration in a cell-based migration assay. Two-chamber technique was used to determine the inhibitory ability of 2C5 in cell migration with NCI-H460, OVCAR8, WS-1 and U-118 cell lines. Collagen (100 μg/ml) was added to the up chamber (100 μl) and the lower chamber (150 μl) and incubated at 37° C. for 1 hour. After washing the chambers twice with PBS, 100 μl of starved cells (estimated 0.5-10×10^6/ml in serum-free medium) were added to the up chamber and 150 μl of serum-free medium was added to the lower chamber and then incubated at 37° C. for 4 hours. […] In 2C5 wells, 2C5 were added into the up chamber at a final concentration of 30 μg/ml. Non-migrated cells in the up chamber were scraped from the membrane. After washing three times with PBS, migrated cells on the membrane of the lower chamber side were fixed with 4% formalin and stained with Hoechst (4 μg/ml). The results were captured and cells were counted under fluorescence microscopy.

WS-1 cells = assay: as above; assay type: cell-based; settings: antibody 30 μg/ml, PDGF-BB 100 ng/ml, 4 hours
Experimental: as §2

OVCAR8 cells = assay: as above; assay type: cell-based, human; settings: antibody 30 μg/ml, PDGF-BB 100 ng/ml, 4 hours
Experimental: as §2

NCI-H460 cells = assay: as above; assay type: cell-based, human; settings: antibody 30 μg/ml, PDGF-BB 100 ng/ml, 4 hours
Experimental: as §2

[2] = system: SK-OV-3 ovarian carcinoma xenograft; assay: Subcutaneous tumor xenograft model; assay type: in vivo, mouse
Experimental: Six xenograft models, SK-OV-3, OV-CAR-8, BxPC-3, OV-CAR-5, Caki-1 and NCI-H460 (A to F, respectively) were used to examine the effects of 1B3 on xenograft tumors in athymic nude mice. Mice with established tumors (˜250-300 mm^3) were randomly grouped and treated with 1B3, normal human IgG, or saline by intraperitoneal injection twice weekly (except for BxPC-3 model where the mice were treated three times a week) at the dose indicated. Tumor volumes were measured twice a week and are presented as mean±SEM. *1 indicates the loss of one mouse due to severe illness. 1B3 binds to mouse, but not human, PDGFRβ. Accordingly, the observed responses to treatment result from inhibition of stimulation of host cells.
Antitumor activity of anti-mPDGFRβ antibody in tumor xenograft models. Six human xenograft tumor models, including three ovarian carcinoma (SK-OV-3, OV-CAR-5 and OV-CAR-8), one pancreatic carcinoma (BxPC3), one lung carcinoma (NCI-H460), and one kidney carcinoma (Caki-1), were used to assess the antitumor activity of 1B3 in vivo. […] Tumor sizes and mouse body weight were measured twice a week. Tumor volume was calculated using the formula: π/6×(length×width^2), where length=longest diameter and width=diameter perpendicular to length. The ratio of average tumor volume in the treatment group versus that in the control group (T/C %) was calculated. […]

PDGFRβ in NIH/3T3 cells = target: T1, PDGFRβ in NIH/3T3 cells (Mus musculus, UniProt P05622); assay: PDGF-BB-stimulated receptor phosphorylation (Western blot); assay type: cell-based
T1 construct: Receptor phosphorylation was determined for NIH/3T3 and D122 cells; endogenous in cells; host or cells: NIH/3T3
T1 sequence (P05622 32-1098): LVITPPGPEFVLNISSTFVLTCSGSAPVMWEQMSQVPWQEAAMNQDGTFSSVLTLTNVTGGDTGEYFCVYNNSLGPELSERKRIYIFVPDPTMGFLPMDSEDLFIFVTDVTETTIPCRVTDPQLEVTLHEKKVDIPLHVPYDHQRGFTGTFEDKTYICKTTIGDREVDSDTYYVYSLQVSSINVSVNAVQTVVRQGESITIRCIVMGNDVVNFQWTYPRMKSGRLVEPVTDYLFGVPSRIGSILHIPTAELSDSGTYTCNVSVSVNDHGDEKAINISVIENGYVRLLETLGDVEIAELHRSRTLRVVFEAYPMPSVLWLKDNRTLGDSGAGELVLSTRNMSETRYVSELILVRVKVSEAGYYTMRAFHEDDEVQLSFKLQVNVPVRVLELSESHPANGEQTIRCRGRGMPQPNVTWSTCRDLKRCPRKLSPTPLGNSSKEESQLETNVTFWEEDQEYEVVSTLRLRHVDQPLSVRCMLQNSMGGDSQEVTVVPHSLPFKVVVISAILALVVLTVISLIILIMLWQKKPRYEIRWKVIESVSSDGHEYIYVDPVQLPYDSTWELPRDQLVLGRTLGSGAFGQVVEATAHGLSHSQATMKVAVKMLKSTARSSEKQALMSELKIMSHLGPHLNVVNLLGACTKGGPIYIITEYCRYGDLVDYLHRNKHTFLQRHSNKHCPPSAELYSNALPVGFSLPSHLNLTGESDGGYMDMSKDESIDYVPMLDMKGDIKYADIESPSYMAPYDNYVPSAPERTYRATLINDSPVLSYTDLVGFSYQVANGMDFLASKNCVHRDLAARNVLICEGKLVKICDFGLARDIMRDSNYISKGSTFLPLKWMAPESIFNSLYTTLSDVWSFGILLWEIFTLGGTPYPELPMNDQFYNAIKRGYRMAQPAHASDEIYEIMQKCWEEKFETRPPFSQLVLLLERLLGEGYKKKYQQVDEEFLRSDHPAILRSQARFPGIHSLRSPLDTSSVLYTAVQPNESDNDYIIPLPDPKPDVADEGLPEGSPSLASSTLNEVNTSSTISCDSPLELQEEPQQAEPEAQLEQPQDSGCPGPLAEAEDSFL
Experimental: (§3) Receptor phosphorylation was determined for NIH/3T3 and D122 cells. The cells were plated onto 6 cm dishes and grown to 70-80% confluence, after which the cells were washed twice in PBS and cultured overnight in serum free medium. […] The cells were lysed in lysis buffer (50 mM Tris-HCl, pH 7.4, 150 mM NaCl, 1% TritonX-100, 1 mM EDTA, 1 mM phenylmethylsulfonyl fluoride, 0.5 mM Na3VO4 1 μg/ml leupeptin, 1 μg/ml pepstatin, and 1 μg/ml aprotinin) for 1 h, followed by centrifugation of the lysate at 12,000 rpm for 10 min at 4° C. The receptors were immunoprecipitated from the cell lysate supernatant by an anti-mPDGFRβ antibody (R&D Systems Inc), followed by the addition of 20 μl of ProA/G-sepharose beads. The precipitated receptor proteins were resolved on a 4-12% NuPAGE Bis-Tris gel and transferred to a polyvinylidene difluoride membrane. Phospho-mPDGFRβ protein was detected on the blot using an anti-phospho-tyrosine antibody-HRP conjugate (Santa Cruz Biotech, Santa Cruz, Calif.). Total receptor proteins loaded on the gel were assayed with an antibody to mPDGFRβ.

PDGFRβ in D122 cells = target: T2, PDGFRβ in D122 cells (Mus musculus, UniProt P05622); assay: as above; assay type: cell-based
T2 construct: endogenous in cells; host or cells: D122
T2 sequence (P05622 32-1098): as above
Experimental: as §3

B1: 2C5: PDGFRβ-specific human antibody binding both human and murine PDGFRβ; SEQ ID NOS in Table 1 (antibody, listed as Homo sapiens, V domains shown)
VH: QVQLVQSGAEVKKPGSSVKVSCKASGGTFSSYAISWVRQAPGQGLEWMGRIIPILGIANYAQKFQGRVTITADKSTSTAYMELSSLRSEDTAVYYCARDMGSRNYYYFYWGQGTLVTVSS
VL: EIVLTQSPATLSLSPGERATLSCRASQSVGRYLAWYQQKPGQAPRLLIYGASNRATGIPARFSGSGSGTDFTLTISSLEPEDFAVYYCQQRSNWPLTFGGGTKVEIK
Q: How did the “inhibition of PDGF-BB-stimulated phosphorylation of Akt and p44/42 MAP kinase” value [1] turn out when B1 was run?
A: The value was “potently inhibited”.

Q: What about the “binding to 3β2α” value (3β2α) of the same molecule?
A: The value was “✓”.

Q: And the “binding to 4β1α” value (4β1α)?
A: Its value is “✓”.

Q: What about the “inhibition of PDGF-BB-stimulated cell migration” value (U-118 cells) of the same molecule?
A: Its value is “inhibited PDGF-BB-stimulated cell migration completely”.

Q: What about the “inhibition of PDGF-BB-stimulated cell migration” value (WS-1 cells) of the same molecule?
A: The value was “inhibited PDGF-BB-stimulated cell migration completely”.

Q: And the “inhibition of PDGF-BB-stimulated cell migration” value (OVCAR8 cells)?
A: The value was “inhibited PDGF-BB-stimulated cell migration completely”.

Q: What about the “inhibition of PDGF-BB-stimulated cell migration” value (NCI-H460 cells) of the same molecule?
A: Its value is “inhibited PDGF-BB-stimulated cell migration completely”.

B2: 1B3: human anti-mouse PDGFRβ antibody from Fab phage display library, human κ/γ1 constant regions; SEQ ID NOS in Table 1 (antibody, listed as Homo sapiens, V domains shown)
VH: QVQLQESGGGLVKPGGSLRLSCAASGFTFSSYSMNWVRQAPGKGLEWVSSISSSSSYIYYADSVKGRFTISRDNSKNTLYLQMNSLRAEDTAVYYCAKGGRPLLVFDFWGQGTLVTVS
VL: EIVMTQSPGTLSLSPGERATLSCRASQSVSSSYLAWYQQKPGQAPRLLIYDASKRATGIPARFSGSGSGTDFTLTISTLESEDSAVYYCQQRGYWPPITFGQGTRLEIKR
modifications: human kappa/gamma1 constant regions
Q: How did the tumor growth inhibition ([2]; 60 mg/kg i.p. twice weekly) turn out when B2 was run?
A: Its tumor growth inhibition is “completely blocked the tumor growth for up to 29 days”.

Q: What about the tumor growth inhibition ([2]; two lower doses (6, 20 mg/kg) i.p. twice weekly) of the same molecule?
A: Its tumor growth inhibition is “No tumor growth inhibition was observed”.

Q: And the “inhibition of PDGF-BB-stimulated receptor phosphorylation” value (PDGFRβ in NIH/3T3 cells)?
A: The value was “inhibited PDGF-BB-stimulated receptor phosphorylation in both NIH/3T3 and D122 cells in a dose dependent manner”.

Q: And the “inhibition of PDGF-BB-stimulated receptor phosphorylation” value (PDGFRβ in D122 cells)?
A: The value was “inhibited PDGF-BB-stimulated receptor phosphorylation in both NIH/3T3 and D122 cells in a dose dependent manner”.
